Assay results taken from patent US6072039, “Hybrid polypeptide comparing a biotinylated avidin binding polypeptide fused to a polypeptide of interest” (Rohm and Haas Company, dated 2000).

Key:
[1] = biological target: T1, avidin monomer affinity resin (Gallus gallus (Chicken), UniProt P02701); experiment: avidin monomer affinity column, cyanogen bromide cleavage mixture; by Procedure XI the polypeptide of interest is not retained and is collected in the column flowthrough
Description: (§1) The crude extract is applied to a 4 mm×5 cm column packed with avidin monomer affinity resin (U.S. Ser. No. 414,785) on a LKB HPLC system equipped with two Model 2150 pumps, Model 2152 controller, and a Model 2140 spectral detector. Sample absorbance is monitored at 280 nm. The crude extract is applied in 100 mM potassium phosphate buffer, pH 6.8 to 7.2 (or other appropriate buffer at a pH of 4.0 to 11.0) at a flow rate of 0.1 ml/min to a column equilibrated with the same buffer. After the sample is loaded, the column is washed with phosphate buffer at a flow rate of 1 ml/min until absorbance returned to the baseline absorbance, and all nonbound material is washed from the resin. The column is then equilibrated with water, followed by application of 5 ml of 2M NaCl. The column is reequilibrated with water. This same NaCl-water wash procedure is repeated four to five times. The sample is eluted using acetic acid or biotin, as detailed in Procedure IX.
The hybrid polypeptide is dissolved in 70% (v/v) aqueous formic acid at 23° C. A 50 molar excess of cyanogen bromide is added in a small volume of 70% formic acid, with stirring. The mixture is incubated in the dark under nitrogen at 20–25° C. for 16 to 24 hours. The mixture is then diluted with 10 volumes of water and freeze-dried. Highly pure polypeptide of interest is obtained by Procedure VIII.
Procedure XI. […]

[2] = biological target: T1, avidin monomer affinity resin; experiment: avidin monomer affinity column, formic acid cleavage mixture; by Procedure XI the polypeptide of interest is not retained and is collected in the column flowthrough
Description: as §1
Procedure XI. Separation of the Polypeptide of Interest from the Polypeptide for Attachment The dried polypeptide mixture is resuspended in avidin monomer column loading buffer, 100 mM phosphate buffer pH 6.8–7.2, or other appropriate buffer at a pH of between 4.0 and 11.0. Highly pure polypeptide of interest is obtained by passing the cleaved polypeptide mixture over the avidin resin using the procedure described above. […]

Row | binding result [1] | binding result [2] | Binder
1 | no binding | – | YGGFLTSEKSQTPLVTLFKNAIIKNAYKKGE [β-endorphin cleaved from the hybrid polypeptide by cyanogen bromide (Examples 3 and 6)]
2 | – | no binding | PMYGGFLTSEKSQTPLVTLFKNAIIKNAYKKGE [β-endorphin cleaved from the 1.3S:β-endorphin hybrid by formic acid (Example 2)]
